In paper PMC5575113, “Creating the Functional Single-Ring GroEL-GroES Chaperonin Systems via Modulating GroEL-GroES Interaction” (Scientific Reports, 2017):

Assays:
[1] = target: T1, GroEL^SR (GroEL R452A/E461A/S463A/V464A) (E. coli, UniProt P0A6F5 1-548, R452A | E461A | S463A | V464A); assay: MST; cochaperonin labelled with DyLight 650, unlabelled GroEL or GroEL^SR titrated (serial dilution of 15 samples), 30 min incubation; 50 mM TrisCl pH 7.5, 100 mM KCl, 10 mM MgCl2, 1 mM EDTA, 2 mM ADP, 0.5 mg/mL BSA; Monolith NT115, 80% LED, 40% IR-laser; settings: both partners purified
T1 construct: GroEL, E. coli, single-ring variant; groEL^SR in the pTrc vector; also called single-ring GroEL; source: dialysis against 30% methanol, FastQ column

[2] = target: T2, GroEL (E. coli, UniProt P0A6F5 1-548); assay: MST; cochaperonin labelled with DyLight 650; unlabelled GroEL or GroEL^SR in a serial dilution of 15 samples; 50 mM TrisCl pH 7.5, 100 mM KCl, 10 mM MgCl2, 1 mM EDTA, 2 mM ADP, 0.5 mg/mL BSA; 30 min incubation; settings: both partners purified
T2 construct: GroEL, E. coli, expressed from pTrc; two heptameric rings (tetradecamer); also called chaperonin; double-ring GroEL; source: E. coli BL21(DE3), purified (methanol dialysis, FastQ column); copies: 14

| Kd [1] [nM] | Kd [2] [nM] | Binder |
| --- | --- | --- |
| 3.67 | – | GroES (natural protein, E. coli, UniProt P0A6F9 1-97, looked up, DyLight 650 NHS Ester amine reactive dye (labelled), GroES, E. coli; one heptameric ring; groES in pET3b; also called cochaperonin) MNIRPLHDRVIVKRKEVETKSAGGIVLTGSAAAKSTRGEVLAVGNGRILENGEVKPLDVKVGDIVIFNDGYGVKSEKIDNEEVLIMSESDILAIVEA |
| – | 3.83 ± 0.93 | GroES (natural protein, E. coli, UniProt P0A6F9 1-97, looked up, DyLight 650 NHS ester on amines (for MST), GroES, E. coli, expressed from pET3b; heptamer; also called cochaperonin; wild type GroES) MNIRPLHDRVIVKRKEVETKSAGGIVLTGSAAAKSTRGEVLAVGNGRILENGEVKPLDVKVGDIVIFNDGYGVKSEKIDNEEVLIMSESDILAIVEA |
